According to patent US20250215095:

Tests used:
[1] = system: internally quenched peptide probe with CM WGLSGRS (SEQ ID NO: 685)
[2] = system: internally quenched peptide probe with CM PWGLSGRS (SEQ ID NO: 12)
[3] = system: internally quenched peptide probe with CM PWALSGRS (SEQ ID NO: 688)
[4] = system: internally quenched peptide probe with CM PWGLSARS (SEQ ID NO: 691)
[5] = system: internally quenched peptide probe with CM PWGLAGRS (SEQ ID NO: 690)
[6] = system: internally quenched peptide probe with CM PWGLSG (SEQ ID NO: 684)
[7] = system: internally quenched peptide probe with CM PAGLSGRS (SEQ ID NO: 687)
[8] = system: internally quenched peptide probe with CM PWGLRS (SEQ ID NO: 48)
[9] = system: internally quenched peptide probe with CM LSGRSPAGL (SEQ ID NO: 694)
[10] = system: internally quenched peptide probe with CM AWGLSGRS (SEQ ID NO: 686)
[11] = system: internally quenched peptide probe with CM LSGRSPWGL (SEQ ID NO: 177)
[12] = system: internally quenched peptide probe with CM PWGLSGAS (SEQ ID NO: 692)
[13] = system: internally quenched peptide probe with CM RSPWGL (SEQ ID NO: 90)
[14] = system: internally quenched peptide probe with CM PWGLSGR (SEQ ID NO: 163)
[15] = system: internally quenched peptide probe with CM PWGASGRS (SEQ ID NO: 689)
[16] = system: internally quenched peptide probe with CM PWGLSGRA (SEQ ID NO: 693)
[17] = system: internally quenched peptide probe with CM LSGKSPWGL (SEQ ID NO: 178)
[18] = system: internally quenched peptide probe with CM PWGLSGKS (SEQ ID NO: 150)

matrix metalloprotease 9 (MMP9), sequence (chain, as listed by the source): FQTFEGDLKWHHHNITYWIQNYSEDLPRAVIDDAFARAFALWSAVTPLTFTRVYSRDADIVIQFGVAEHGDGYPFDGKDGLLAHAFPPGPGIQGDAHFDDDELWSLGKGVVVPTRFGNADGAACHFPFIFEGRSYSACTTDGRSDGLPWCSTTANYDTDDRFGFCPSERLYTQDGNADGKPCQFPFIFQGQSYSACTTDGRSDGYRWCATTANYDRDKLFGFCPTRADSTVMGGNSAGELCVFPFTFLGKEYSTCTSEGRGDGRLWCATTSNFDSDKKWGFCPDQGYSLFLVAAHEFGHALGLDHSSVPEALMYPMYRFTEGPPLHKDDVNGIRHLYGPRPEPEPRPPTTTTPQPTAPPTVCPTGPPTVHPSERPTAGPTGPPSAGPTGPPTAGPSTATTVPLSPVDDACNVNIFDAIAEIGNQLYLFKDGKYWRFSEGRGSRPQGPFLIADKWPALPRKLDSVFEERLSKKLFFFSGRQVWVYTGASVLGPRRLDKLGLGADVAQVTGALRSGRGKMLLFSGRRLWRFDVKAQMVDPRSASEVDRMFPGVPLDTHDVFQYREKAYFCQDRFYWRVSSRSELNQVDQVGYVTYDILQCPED

matrix metalloprotease 9 (MMP9)
Probe Cleavage (pM/s) [1]: 581 pM/s
Probe Cleavage (kcat/KM (M^-1 s^-1)) [2]: 150000 M⁻¹ s⁻¹
Probe Cleavage (pM/s) [2]: 7620 pM/s
Probe Cleavage (pM/s) [3]: 12800 pM/s
Probe Cleavage (pM/s) [4]: 17500 pM/s
Probe Cleavage (pM/s) [5]: 13700 pM/s
Probe Cleavage (pM/s) [6]: 13000 pM/s
Probe Cleavage (pM/s) [7]: 16200 pM/s
Probe Cleavage (kcat/KM (M^-1 s^-1)) [8]: 150000 M⁻¹ s⁻¹
Probe Cleavage (pM/s) [8]: 3830 pM/s
Probe Cleavage (pM/s) [9]: 1630 pM/s
Probe Cleavage (pM/s) [10]: 2070 pM/s
Probe Cleavage (pM/s) [11]: 1070 pM/s
Probe Cleavage (pM/s) [12]: 16400 pM/s
Probe Cleavage (kcat/KM (M^-1 s^-1)) [13]: 870000 M⁻¹ s⁻¹
Probe Cleavage (pM/s) [13]: 25500 pM/s
Probe Cleavage (pM/s) [14]: 17200 pM/s
Probe Cleavage (pM/s) [15]: 456 pM/s
Probe Cleavage (pM/s) [16]: 17500 pM/s
Probe Cleavage (pM/s) [17]: 630 pM/s
Probe Cleavage (kcat/KM (M^-1 s^-1)) [18]: 130000 M⁻¹ s⁻¹
Probe Cleavage (pM/s) [18]: 5360 pM/s
